Substrate: CC(C)(COP(=O)(O)OP(=O)(O)OC[C@H]1O[C@@H](n2cnc3c(N)ncnc32)[C@H](O)[C@@H]1OP(=O)(O)O)[C@@H](O)C(=O)NCCC(=O)NCCSC(=O)c1ccccc1
Test: purified protein, by the assay type
Format: biochemical, Arabidopsis thaliana
Conditions: other: apparent, measured at 4 mM NADPH, pH 6.5, 28° C.
Description: The reaction was initiated by adding a protein and incubated at 28° C. for 30 minutes, and the reactions were then terminated by adding 100 μL of 100% ice-cold methanol (MeOH). The BS enzyme assays were performed at an appropriate enzyme concentration so that reaction velocity was proportional to enzyme concentration and linear during the incubation time period. Km and Vmax were determined by non-linear fit to the Michaelis-Menten equation using Graphpad Prism, v8.2.0.
Triplicate assays were performed for all data points.
After centrifugation at 15,000 g for 20 minutes, 5 μL of the supernatant were subjected to high-performance liquid chromatography (HPLC) analysis using an Agilent 1260 Infinity II system (Agilent Technologies, Inc., Santa Clara, CA) equipped with an InfinityLab Poroshell 120 EC-C18 column (3.0×150 mm, 2.7 μm) maintained at 35° C. Products were separated with a 15-minute linear gradient of 10% aqueous acetonitrile solution to 100% acetonitrile and monitored at 248 nm using a diode array detector (DAD). Benzaldehyde was identified by comparing the retention time and absorption spectrum with authentic standard.
Quantitation was achieved by using standard curve generated from authentic standard and product verification was performed by GC-MS.
Recombinant BS proteins were produced in E. coli by expressing the corresponding coding regions (CDS) subcloned into an expression vector pMAL-c5X (New England BioLabs, Ipswich, MA) containing a maltose binding protein (MBP) tag using ClonExpress II One Step Cloning Kit (Vazyme Biotech Co., Piscataway, NJ).
After sequence verification, the desired plasmids were transformed into Rosetta2 (DE3) pLysS competent cells (MilliporeSigma, Burlington, MA). Single colonies were picked and cultured overnight in 2 ml LB medium containing 100 mg/L carbenicillin and 34 mg/L chloramphenicol at 37° C. Overnight cultures were then diluted 100-fold with LB medium and continued to culture at 37° C. until OD600 reached ˜0.5.
After cooling the cell culture on ice for 10 minutes, isopropyl β-D-1-thiogalactopyranoside (IPTG) was added to a final concentration of 0.1 mM and cells were incubated at 28° C. with shaking for additional 2.5 to 3 hours. After harvesting cells by centrifugation, their lysis and protein purification were performed according to the manufacturer's protocol of Amylose Resin (New England Biolabs, Ipswich, MA).

B1: Arabidopsis thaliana benzaldehyde synthase (AtBS), recombinant heterodimer AtBSα (SEQ ID NO: 5) / AtBSβ (SEQ ID NO: 8), wild type, MBP-tagged (Arabidopsis … (protein)
chain 1: MSNHQTQVLKLLEPWCELKDKVVLVTGASSGIGREICLDLAKAGCQVIAAARRVDRLNSLCSEINSFSSTGIQAAALELDVSSDAATIQKAVREAWDIFGKIDALINNAGIRGNVKSSLDLSEDEWDNVFKTNLKGPWLVSKHVCMLMRDAKRGGSVINISSIAGIRGMLPGGLAYACSKGGVDTMSRMMALELGVHKIRVNSIAPGLFKSEITQGLMQKEWLKNVTERTVPLKVQQTVDPGLTSLVRYLIHDSSQYISGNTYIVDSGATLPGVPIFSSL
chain 2: MENPAKRVLMTSNGDEVSRNIAFHLAKHGCKLVMMGNEGSLRSIVDKIRDSIEGAFPADVIALDMESDSEVAFHAAVQKAWELSGHFDAFLNSYTYQGKVQDILQVSQDEFHRITKINLTAPWFLLKAVATRMKDHGSGGSIVFMATIASGERALYPGADAYASTSAAIHQLVRASAMSLGKHKIRVNMISRGLHLDDEYTASVGRDRAQKLVKDAAPLGQWLNPDTDLYSTVIYLISDGSRFMTGTTVLVDGAQSLTRPRLKSYM
notes: full-length CDS from flower cDNA
B1 was tested, and the Km was 242.8 ± 28.2 µM, the Vmax was 0.864 µmol/min/mg and the kcat was 2.12 ± 0.08 s⁻¹. For the same protein, the kcat/Km was 8700 ± 1100 M⁻¹ s⁻¹.

From patent US20250034601A1, “HETERODIMERIC BENZALDEHYDE SYNTHASE, METHODS OF PRODUCING, AND USES THEREOF” (Purdue Research Foundation, priority 2021, published 2025)
